Results reported in paper PMC5854732.

Experiments:
[1] = molecular target: toposome (major yolk protein) purified from gonads of Paracentrotus lividus collected at the bloom phase (T0) (Paracentrotus lividus (endogenous in gonads)); assay: SEC; gel filtration on Sephacryl S-400 HR (1.8 x 42 cm), Tris-HCl buffer pH 8.0 with 150 mM NaCl, 0.5 ml/min; size by comparison with standards (blue dextran 2,000 kDa, thyroglobulin 669 kDa, apoferritin 443 kDa); apparent molecular weight
[2] = molecular target: toposome (major yolk protein) purified from gonads of Paracentrotus lividus collected prior to the bloom (C) (Paracentrotus lividus (endogenous in gonads)); assay: as above

Row | stoichiometry N [1] | stoichiometry N [2] | Substance
1 | 3 |  | toposome (major yolk protein) purified from gonads of Paracentrotus lividus collected at the bloom phase (T0) (natural protein)
2 |  | 3 | toposome (major yolk protein) purified from gonads of Paracentrotus lividus collected prior to the bloom (C) (natural protein)
